Measured values taken from patent US10925928B2, “Method for treating chemotherapy-induced male infertility” (THE BOARD OF REGENTS OF THE UNIVERSITY OF TEXAS SYSTEM, priority 2013, dated 2021).
“Also recorded” adds a separate entry of the source.

Legend:
C57BL/6 mice [1] = assay: Acute mouse study: immunohistochemistry of undifferentiated spermatogonia (PLZF) and apoptosis 5 days after busulfan +/- G-CSF; type: in vivo; conditions: five days after busulfan treatment
Procedure: (§1) FIGS. 3A-3D. This study evaluated the chronic and acute effects of G-CSF treatment on susceptibility to cytotoxic damage by busulfan alkylating chemotherapy. (A) Five-week old C57BL/6 mice were treated with a sterilizing dose of busulfan (44 mg/kg) on day 0. Some busulfan-treated mice also received injections of recombinant human G-CSF (50 μg/kg/day) on days −2 through 4 (seven days total, see group 3 in B). (B) 3 animals were used for each of three treatment groups as shown. Animals in group 1 served as an “untreated” control group (received 0.1% BSA/DPBS and DMSO vehicles only), while those in group 2, which received only busulfan (plus 0.1% BSA/DPBS vehicle), served as positive controls for busulfan cytotoxicity. Animals in the experimental group 3 received both busulfan and daily G-CSF injections. (C) 8-10 weeks after treatment, some of the mice were euthanized and testes removed for histological evaluation of spermatogenesis. (D) In an “acute” study, testes were removed on day 5 of the experiment (one day after the last G-CSF treatment, dark triangle). These testis tissues were used for immunohistochemical analysis of undifferentiated spermatogonia (PLZF) and apoptosis (activated Caspase 3 and TUNEL, see FIGS. 10-12).
FIG. 10. […] The numbers of PLZF+spermatogonia in stained testis sections from mice treated as in FIG. 3 and analyzed as in FIG. 3D are shown. […] Statistical significance was determined by student's T-test.
FIG. 11. […] Despite increased numbers of PLZF+spermatogonia in busulfan-treated animals that also received G-CSF (FIG. 10), the proportions of PLZF+spermatogonia that were positive for activated Caspase 3 (top) were not different between animals treated with G-CSF compared to busulfan alone (p=0.38).
FIG. 12. […] Despite increased numbers of PLZF+spermatogonia in busulfan-treated animals that also received G-CSF (FIG. 10), the proportions of PLZF+spermatogonia that were positive for TUNEL were not different between animals treated with G-CSF compared to busulfan alone (p=0.28).
Shown in FIG. 10 are the numbers of PLZF+spermatogonia in stained testis sections from mice treated as in FIG. 3. […] Statistical significance was determined by student's T-test.
Despite increased numbers of PLZF+spermatogonia in busulfan-treated animals that also received G-CSF, the proportions of PLZF+spermatogonia that were positive for activated Caspase 3 (FIG. 11) or TUNEL (FIG. 12) were not different between animals treated with G-CSF compared to busulfan alone (p=0.38 and p=0.28, respectively).

C57BL/6 mice [2] = assay: Mouse testis weight and histological evaluation of spermatogenesis two months after busulfan +/- G-CSF; type: in vivo
Procedure: as §1
FIG. 4. Mouse testis weights 2 months after busulfan treatment +/−G-CSF. Two months after treatment, testes were removed from the treated mice and weighed. […] But, testis weights from animals treated with busulfan+G-CSF were not different from those treated with busulfan+vehicle. Statistical significance was determined by a student's T-test.
FIGS. 5A-5F. […] Tiled brightfield images of H&E-stained sections of mouse testes from (A) group 1 (DMSO+vehicle), (B) group 2 (busulfan+vehicle), and (C) group 3 (busulfan+G-CSF). Dashed box inset indicates the area shown in D-F. Scale bars=500 μm. Enlarged images of the dashed boxes in A-C are shown in (D-F), respectively. Scale bars=50 μm. Filled arrowheads=seminiferous tubules with spermatogenesis. Open arrowheads=no spermatogenesis.
FIGS. 6A-6B. Quantitatively more mouse spermatogenesis was observed after busulfan treatment when mice received G-CSF treatment. Seminiferous tubule cross-sections from mice treated as shown in FIG. 5 were systematically counted and categorized as containing complete spermatogenesis (complete), up to round spermatid stage (round spermatids), up to primary spermatocytes (1° spermatocytes), or containing no spermatogenesis (empty or Sertoli cell-only). (A) The percentage of all seminiferous tubule cross-sections counted from all animals in each group which fall in the four categories is shown. […] (B) The same data presented in A are combined by group to show the percentage of seminiferous tubules containing any spermatogenesis or no spermatogenesis (empty bar segment). […] Statistically significant results (p<0.05) were determined by Tukey-Kramer ANOVA.
The results of meta-analysis of the rhesus macaque busulfan studies prompted additional studies in mice to (1) replicate the results observed in rhesus macaques and (2) determine whether G-CSF could act directly upon testicular germ cells to prevent male infertility after busulfan treatment. In the first experiment, 5 week-old C57BL/6 mice were treated with G-CSF for one week (50 μg/kg/day) and administered busulfan (44 mg/kg) on day 3 (see FIG. 3), mimicking the approach used to administer G-CSF in rhesus monkeys. Two months after completing G-CSF treatment, the mice euthanized and their testes removed. […] The testes were then analyzed histologically (FIG. 5) to determine if G-CSF treatment affected the degree of spermatogenesis after busulfan treatment. Unlike control testes, in which most tubules contained complete spermatogenesis (FIGS. 5A and D), many tubules were devoid of germ cells (empty or Sertoli cell-only) in animals treated with busulfan (FIGS. 5B-C and E-F).

rhesus macaques [3] = conditions: 8-12 mg/kg busulfan without G-CSF; two animals; total sperm per ejaculate; cited from earlier work
rhesus macaques [4] = assay: Meta-analysis of ejaculated sperm counts in rhesus macaques after busulfan chemotherapy with or without G-CSF; type: in vivo, rhesus macaque
Description: FIG. 1. Timeline for rhesus macaque granulocyte colony stimulating factor (G-CSF) and chemotherapy administration. FIG. 1 illustrates the timing of experimental administration of G-CSF and busulfan alkyating chemotherapy in the context of a study testing spermatogonial stem cell transplantation. Male rhesus macaques were used as recipients for spermatogonial stem cell transplantation after busulfan treatment. In order to restore the hematopoietic system after busulfan chemotherapy, autologous transplants of hematopoietic stem cells harvested from the peripheral blood (PBSCs) following G-CSF mobilization were used. Animals received daily subcutaneous injections with the cytokine G-CSF (and in some cases, also SCF) for six days to mobilize hematopoietic stem cells from the bone marrow into the general circulation. […] Animals were monitored closely for hematopoietic deficits with weekly (or more frequent) complete blood count (CBC). […] Weekly ejaculated sperm counts measured the effect of busulfan on spermatogenesis and the progression of spermatogenic recovery after transplant. […]
Animals received daily subcutaneous injections with the cytokine G-CSF for 6 days to mobilize hematopoietic stem cells from the bone marrow into the general circulation. […] Animals were monitored closely for hematopoietic deficits with weekly (or more frequent) complete blood count (CBC). […]

irradiated mice = conditions: G-CSF 100 μg/kg/day for 3 days prior to 5 Gy testicular gamma irradiation; measured 3 weeks later; cited from earlier work
[5] = 2 day pre-treatment and 5 day post-treatment with G-CSF 50 μg/kg, p<0.05 Tukey-Kramer ANOVA

## CS(=O)(=O)OCCCCOS(C)(=O)=O [busulfan, reference compound]
C57BL/6 mice [1]; student's T-test
  numbers of PLZF+ spermatogonia per tubule, busulfan-treated groups compared with vehicle-treated animals: significantly lower
C57BL/6 mice [2]; busulfan 44 mg/kg, two months after treatment, histology of seminiferous tubule cross-sections
  spermatogenesis, busulfan alone compared to control animals: significantly less spermatogenesis
C57BL/6 mice [2]; busulfan 44 mg/kg, two months after treatment, student's T-test
  testis weights, busulfan-treated animals compared with controls: significantly smaller; also recorded: significantly reduced
Rhesus macaques [3]
  loss of spermatogenesis (azoospermia), mean sperm counts: loss of spermatogenesis (azoospermia) for at least one year

## SCF: cytokine given in some cases in addition to G-CSF for mobilization of hematopoietic stem cells
Rhesus macaques [4]; one monkey of the G-CSF group, data not shown
  spermatogenic recovery, animal given SCF in addition to G-CSF compared with the other two G-CSF animals: no apparent difference in spermatogenic recovery

B1: granulocyte colony-stimulating factor (protein, UniProt P09919 31-207, looked up)
Granulocyte …: TPLGPASSLPQSFLLKCLEQVRKIQGDGAALQEKLVSECATYKLCHPEELVLLGHSLGIPWAPLSSCPSQALQLAGCLSQLHSGLFLYQGLLQALEGISPELGPTLDTLQLDVADFATTIWQQMEELGMAPALQPTQGAMPAFASAFQRRAGGVLVASHLQSFLEVSYRVLRHLAQP
notes: protein produced from the gene encoding colony-stimulating factor 3; known by trade names neupogen, neulasta, filgrastim
C57BL/6 mice [1]; early apoptosis, p=0.38
  proportion of PLZF+ spermatogonia positive for activated Caspase 3, G-CSF compared to busulfan alone: not different
C57BL/6 mice [1]; p=0.035, student's T-test
  number of PLZF+ spermatogonia per tubule cross-section, G-CSF + busulfan compared with busulfan alone: significantly higher
C57BL/6 mice [1]; late apoptosis, p=0.28
  proportion of PLZF+ spermatogonia positive for TUNEL, G-CSF compared to busulfan alone: not different
Rhesus macaques [4]; 8-11 mg/kg busulfan plus G-CSF mobilization and PBSC transplants, three animals, endogenous spermatogenesis
  time at which spermatogenesis recovered after busulfan treatment: ≥ 20 weeks
Irradiated mice
  numbers of surviving differentiated spermatogonia following sub-sterilizing irradiation: modest improvement
C57BL/6 mice [2]; [5]
  empty seminiferous tubules, G-CSF + busulfan compared with busulfan alone: significantly fewer; also recorded: significantly less
  seminiferous tubules containing complete spermatogenesis, G-CSF + busulfan compared with busulfan alone: significantly more
  tubules with any degree of spermatogenesis, G-CSF + busulfan compared with busulfan alone: significantly more
C57BL/6 mice [2]; G-CSF 50 μg/kg/day for seven days, busulfan 44 mg/kg, two months after treatment
  testis weights, busulfan + G-CSF compared with busulfan alone: not different; also recorded: did not differ significantly
C57BL/6 mice [2]; histological analysis, G-CSF 50 μg/kg/day, busulfan 44 mg/kg, two months
  recovery of spermatogenesis after busulfan treatment, G-CSF compared with controls: significantly better recovery of spermatogenesis
